Source: doi:10.1101/2019.12.17.879908

Key:
[1] = target: Dimethylformamidase (DMFase) large subunit expressed and purified without the small subunit (Paracoccus sp. strain DMF); experiment: SEC
[2] = target: Dimethylformamidase (DMFase) α2β2 complex, recombinant wild type (Paracoccus sp. strain DMF); experiment: cryo-EM structure

Row | stoichiometry N [1] | stoichiometry N [2] | Substance
1 | 2 | – | Dimethylformamidase (DMFase) large subunit expressed and purified without the small subunit (natural protein)
2 | – | 2 | Dimethylformamidase (DMFase) α2β2 complex, recombinant wild type
